Among the data in PMC5241803, “Structural basis for the recognition and degradation of host TRIM proteins by Salmonella effector SopA” (Nature Communications, 2017) are binding result and Kd values, retold here.

One experiment has as its target T1, GST-SopA (S. Typhimurium, UniProt Q8ZNR3 1-782).
T1 construct: also called recombinant SopA; source: E. coli BL21 (DE3), purified on glutathione sepharose 4B beads; not shown: GST, N-terminal, kept
T1 sequence: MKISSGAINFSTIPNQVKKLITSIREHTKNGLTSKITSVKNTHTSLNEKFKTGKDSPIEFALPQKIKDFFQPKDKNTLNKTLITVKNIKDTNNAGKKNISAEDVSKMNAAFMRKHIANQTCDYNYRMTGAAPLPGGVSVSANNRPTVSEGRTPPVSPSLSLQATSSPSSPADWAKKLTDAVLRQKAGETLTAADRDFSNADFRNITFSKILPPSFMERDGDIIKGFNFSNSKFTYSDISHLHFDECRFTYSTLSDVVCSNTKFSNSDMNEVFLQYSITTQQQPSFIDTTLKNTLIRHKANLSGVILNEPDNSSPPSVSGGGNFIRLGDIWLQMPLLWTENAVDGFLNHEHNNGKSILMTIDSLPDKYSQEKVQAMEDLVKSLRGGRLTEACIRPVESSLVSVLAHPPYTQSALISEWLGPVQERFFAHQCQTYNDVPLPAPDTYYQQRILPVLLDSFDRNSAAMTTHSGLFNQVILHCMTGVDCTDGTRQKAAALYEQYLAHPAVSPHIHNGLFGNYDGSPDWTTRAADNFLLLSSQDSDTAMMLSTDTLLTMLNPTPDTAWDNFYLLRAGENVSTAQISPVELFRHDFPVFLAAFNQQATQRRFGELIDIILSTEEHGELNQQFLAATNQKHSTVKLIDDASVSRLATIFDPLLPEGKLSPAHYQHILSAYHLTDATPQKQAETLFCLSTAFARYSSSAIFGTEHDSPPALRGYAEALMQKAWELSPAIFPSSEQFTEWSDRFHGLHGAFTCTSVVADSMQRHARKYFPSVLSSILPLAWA
Briefly: pull-down. Conditions: both partners purified.

The target in a further experiment is T2, SopA (163–782) (S. Typhimurium, UniProt Q8ZNR3 163-782).
T2 construct: also called SopA WT; source: bacterially expressed, purified (Talon beads, size exclusion)
T2 sequence: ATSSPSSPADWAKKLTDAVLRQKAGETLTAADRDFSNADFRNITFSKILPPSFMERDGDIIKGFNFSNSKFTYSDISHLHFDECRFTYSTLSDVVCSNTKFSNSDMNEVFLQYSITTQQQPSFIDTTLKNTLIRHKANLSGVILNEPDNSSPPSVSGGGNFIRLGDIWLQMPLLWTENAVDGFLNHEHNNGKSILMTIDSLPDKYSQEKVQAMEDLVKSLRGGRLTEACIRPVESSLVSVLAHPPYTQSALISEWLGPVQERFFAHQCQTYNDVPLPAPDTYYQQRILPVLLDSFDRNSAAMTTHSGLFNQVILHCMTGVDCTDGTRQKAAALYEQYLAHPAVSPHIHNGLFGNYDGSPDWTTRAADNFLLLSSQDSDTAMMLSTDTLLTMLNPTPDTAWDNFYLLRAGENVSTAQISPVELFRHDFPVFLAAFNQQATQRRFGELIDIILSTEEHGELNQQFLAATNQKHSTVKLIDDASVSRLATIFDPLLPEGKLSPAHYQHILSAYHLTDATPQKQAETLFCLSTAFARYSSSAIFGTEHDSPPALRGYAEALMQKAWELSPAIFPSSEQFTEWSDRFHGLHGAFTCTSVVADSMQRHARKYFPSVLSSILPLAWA
The experiment is described as follows: ITC; 1 mM TRIM56 (1–94) injected into 20 μM SopA (163–782) in the cell, 25 °C, 10 mM HEPES, 100 mM NaCl, 1 mM TCEP; VP-ITC. The conditions noted are these: both partners purified.

B1: MBP-TRIM56 (natural protein, human, UniProt Q9BRZ2 1-755, looked up)
chain: MVSHGSSPSLLEALSSDFLACKICLEQLRAPKTLPCLHTYCQDCLAQLADGGRVRCPECRETVPVPPEGVASFKTNFFVNGLLDLVKARACGDLRAGKPACALCPLVGGTSTGGPATARCLDCADDLCQACADGHRCTRQTHTHRVVDLVGYRAGWYDEEARERQAAQCPQHPGEALRFLCQPCSQLLCRECRLDPHLDHPCLPLAEAVRARRPGLEGLLAGVDNNLVELEAARRVEKEALARLREQAARVGTQVEEAAEGVLRALLAQKQEVLGQLRAHVEAAEEAARERLAELEGREQVARAAAAFARRVLSLGREAEILSLEGAIAQRLRQLQGCPWAPGPAPCLLPQLELHPGLLDKNCHLLRLSFEEQQPQKDGGKDGAGTQGGEESQSRREDEPKTERQGGVQPQAGDGAQTPKEEKAQTTREEGAQTLEEDRAQTPHEDGGPQPHRGGRPNKKKKFKGRLKSISREPSPALGPNLDGSGLLPRPIFYCSFPTRMPGDKRSPRITGLCPFGPREILVADEQNRALKRFSLNGDYKGTVPVPEGCSPCSVAALQSAVAFSASARLYLINPNGEVQWRRALSLSQASHAVAALPSGDRVAVSVAGHVEVYNMEGSLATRFIPGGKASRGLRALVFLTTSPQGHFVGSDWQQNSVVICDGLGQVVGEYKGPGLHGCQPGSVSVDKKGYIFLTLREVNKVVILDPKGSLLGDFLTAYHGLEKPRVTTMVDGRYLVVSLSNGTIHIFRVRSPDS
notes: TRIM56, human, full length, in pMAL-C2X; also called recombinant TRIM56; not shown: MBP, N-terminal, kept
Take B1: the binding result in the experiment with GST-SopA is listed as “binds”.

B2: TRIM56 (1–94) (domain or fragment, human, UniProt Q9BRZ2 1-94, looked up)
chain: MVSHGSSPSLLEALSSDFLACKICLEQLRAPKTLPCLHTYCQDCLAQLADGGRVRCPECRETVPVPPEGVASFKTNFFVNGLLDLVKARACGDL
notes: TRIM56, human, RING domain, residues 1-94; in the crystal this stretch stood N-terminal on one chain with SopA (163–425); also called TRIM56 RING domain; TRIM56 RING
For orientation: Kd means a measure of binding affinity in units of concentration. In the experiment with SopA (163–782), B2 returned a dissociation constant (Kd) of roughly 9 µM.
